Measurements taken from patent US20140087995A1 (published 2014).
Numbered stars: 1 amine (or outer) side, 2 acyl side, 3 side chain; on linkers, the order of the positions; unused ones are H or OH. Bridge positions count the residues as written; N and C are the ends. Square brackets hold non-standard residues; d marks the D form. Side chains are listed from the residue outwards. Ends that are not written are not given here. * marks the point of attachment. C20 diacid = O=C(O)CCCCCCCCCCCCCCCCCCC(=O)*; γGlu = O=C(O)[C@H](CCC(=O)[*:2])N[*:1]

T1: human calcitonin receptor (human, UniProt P30988 25-474)
T1 sequence (looked up): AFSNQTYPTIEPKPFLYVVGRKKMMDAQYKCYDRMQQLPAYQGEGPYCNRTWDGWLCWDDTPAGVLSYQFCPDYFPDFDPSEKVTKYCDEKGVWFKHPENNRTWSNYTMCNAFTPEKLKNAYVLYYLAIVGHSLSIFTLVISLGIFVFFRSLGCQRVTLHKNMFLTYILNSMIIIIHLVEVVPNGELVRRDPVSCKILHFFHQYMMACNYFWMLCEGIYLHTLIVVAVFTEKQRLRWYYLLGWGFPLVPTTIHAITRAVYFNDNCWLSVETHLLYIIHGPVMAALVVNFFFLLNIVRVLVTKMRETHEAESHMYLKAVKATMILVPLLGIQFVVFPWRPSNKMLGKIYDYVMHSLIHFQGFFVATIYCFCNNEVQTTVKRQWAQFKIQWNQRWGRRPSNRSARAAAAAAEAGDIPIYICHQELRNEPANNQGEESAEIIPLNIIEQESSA

T2: human amylin receptor (amylin 3(a) receptor: human calcitonin receptor co-expressed with RAMP-3) (human, UniProt P30988 25-474; O60896 24-148, limits assumed)
T2 construct: whole, on cells; Used as cell membranes prepared from the Amylin 3(a)/CRE-luc BHK cells (Assay V); also called hAmylin-R; hAmylinR
T2 sequence (looked up) 1: T1 sequence (looked up)
T2 sequence (looked up) 2: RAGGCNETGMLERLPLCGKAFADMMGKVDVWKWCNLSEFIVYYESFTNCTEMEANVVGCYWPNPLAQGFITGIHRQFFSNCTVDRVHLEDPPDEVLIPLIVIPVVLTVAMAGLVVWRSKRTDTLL

B1: N^ε1-[(4S)--4-carboxy-4-(19-carboxynonadecanoylamino)butanoyl]-[Glu14,Arg17,Pro21,Pro27,Pro37]-h-amylin (peptide)
peptide: K([γGlu-C20 diacid])CNTATCATQRLAEFLRHSSPNFGAIPSSTNVGSNTP-NH2
modifications: disulfide 2-7; N-terminus assumed
SMILES: CC[C@H](C)[C@H](NC(=O)[C@H](C)NC(=O)CNC(=O)[C@H](Cc1ccccc1)NC(=O)[C@H](CC(N)=O)NC(=O)[C@@H]1CCCN1C(=O)[C@H](CO)NC(=O)[C@H](CO)NC(=O)[C@H](Cc1c[nH]cn1)NC(=O)[C@H](CCCNC(=N)N)NC(=O)[C@H](CC(C)C)NC(=O)[C@H](Cc1ccccc1)NC(=O)[C@H](CCC(=O)O)NC(=O)[C@H](C)NC(=O)[C@H](CC(C)C)NC(=O)[C@H](CCCNC(=N)N)NC(=O)[C@H](CCC(N)=O)NC(=O)[C@@H](NC(=O)[C@H](C)NC(=O)[C@@H]1CSSC[C@H](NC(=O)[C@@H](N)CCCCNC(=O)CC[C@H](NC(=O)CCCCCCCCCCCCCCCCCCC(=O)O)C(=O)O)C(=O)N[C@@H](CC(N)=O)C(=O)N[C@@H]([C@@H](C)O)C(=O)N[C@@H](C)C(=O)N[C@@H]([C@@H](C)O)C(=O)N1)[C@@H](C)O)C(=O)N1CCC[C@H]1C(=O)N[C@@H](CO)C(=O)N[C@@H](CO)C(=O)N[C@H](C(=O)N[C@@H](CC(N)=O)C(=O)N[C@H](C(=O)NCC(=O)N[C@@H](CO)C(=O)N[C@@H](CC(N)=O)C(=O)N[C@H](C(=O)N1CCC[C@H]1C(N)=O)[C@@H](C)O)C(C)C)[C@@H](C)O
notes: Synthetic acylated analogue of human amylin; also called compound 12
B2: N^ε1-[(4S)-4-carboxy-4-(19-carboxynonadecanoylamino)butanoyl]-[Ala14,Arg17,Pro21,Pro27,Pro34]-h-amylin (peptide)
peptide: K([γGlu-C20 diacid])CNTATCATQRLAAFLRHSSPNFGAIPSSTNVGPNTY-NH2
modifications: disulfide 2-7; N-terminus assumed
SMILES: CC[C@H](C)[C@H](NC(=O)[C@H](C)NC(=O)CNC(=O)[C@H](Cc1ccccc1)NC(=O)[C@H](CC(N)=O)NC(=O)[C@@H]1CCCN1C(=O)[C@H](CO)NC(=O)[C@H](CO)NC(=O)[C@H](Cc1c[nH]cn1)NC(=O)[C@H](CCCNC(=N)N)NC(=O)[C@H](CC(C)C)NC(=O)[C@H](Cc1ccccc1)NC(=O)[C@H](C)NC(=O)[C@H](C)NC(=O)[C@H](CC(C)C)NC(=O)[C@H](CCCNC(=N)N)NC(=O)[C@H](CCC(N)=O)NC(=O)[C@@H](NC(=O)[C@H](C)NC(=O)[C@@H]1CSSC[C@H](NC(=O)[C@@H](N)CCCCNC(=O)CC[C@H](NC(=O)CCCCCCCCCCCCCCCCCCC(=O)O)C(=O)O)C(=O)N[C@@H](CC(N)=O)C(=O)N[C@@H]([C@@H](C)O)C(=O)N[C@@H](C)C(=O)N[C@@H]([C@@H](C)O)C(=O)N1)[C@@H](C)O)C(=O)N1CCC[C@H]1C(=O)N[C@@H](CO)C(=O)N[C@@H](CO)C(=O)N[C@H](C(=O)N[C@@H](CC(N)=O)C(=O)N[C@H](C(=O)NCC(=O)N1CCC[C@H]1C(=O)N[C@@H](CC(N)=O)C(=O)N[C@H](C(=O)N[C@@H](Cc1ccc(O)cc1)C(N)=O)[C@@H](C)O)C(C)C)[C@@H](C)O
notes: also called compound 94
B3: N^ε1-[(4S)-4-carboxy-4-(19-carboxynonadecanoylamino)butanoyl]-[Asp14,Arg17,Pro21,Pro27,Pro34,Arg35]-h-amylin (peptide)
peptide: K([γGlu-C20 diacid])CNTATCATQRLADFLRHSSPNFGAIPSSTNVGPRTY-NH2
modifications: disulfide 2-7; N-terminus assumed
SMILES: CC[C@H](C)[C@H](NC(=O)[C@H](C)NC(=O)CNC(=O)[C@H](Cc1ccccc1)NC(=O)[C@H](CC(N)=O)NC(=O)[C@@H]1CCCN1C(=O)[C@H](CO)NC(=O)[C@H](CO)NC(=O)[C@H](Cc1c[nH]cn1)NC(=O)[C@H](CCCNC(=N)N)NC(=O)[C@H](CC(C)C)NC(=O)[C@H](Cc1ccccc1)NC(=O)[C@H](CC(=O)O)NC(=O)[C@H](C)NC(=O)[C@H](CC(C)C)NC(=O)[C@H](CCCNC(=N)N)NC(=O)[C@H](CCC(N)=O)NC(=O)[C@@H](NC(=O)[C@H](C)NC(=O)[C@@H]1CSSC[C@H](NC(=O)[C@@H](N)CCCCNC(=O)CC[C@H](NC(=O)CCCCCCCCCCCCCCCCCCC(=O)O)C(=O)O)C(=O)N[C@@H](CC(N)=O)C(=O)N[C@@H]([C@@H](C)O)C(=O)N[C@@H](C)C(=O)N[C@@H]([C@@H](C)O)C(=O)N1)[C@@H](C)O)C(=O)N1CCC[C@H]1C(=O)N[C@@H](CO)C(=O)N[C@@H](CO)C(=O)N[C@H](C(=O)N[C@@H](CC(N)=O)C(=O)N[C@H](C(=O)NCC(=O)N1CCC[C@H]1C(=O)N[C@@H](CCCNC(=N)N)C(=O)N[C@H](C(=O)N[C@@H](Cc1ccc(O)cc1)C(N)=O)[C@@H](C)O)C(C)C)[C@@H](C)O
B4: N^ε1-[(4S)-4-carboxy-4-[[(4S)-4-carboxy-4-(19-carboxynonadecanoylamino)butanoyl]amino]butanoyl]-[D-Asp14,Arg17,Pro21,Pro27,Arg35]-h-amylin (peptide)
peptide: K([γGlu-γGlu-C20 diacid])CNTATCATQRLA[dD]FLRHSSPNFGAIPSSTNVGSRTY-NH2
modifications: disulfide 2-7; N-terminus assumed
SMILES: CC[C@H](C)[C@H](NC(=O)[C@H](C)NC(=O)CNC(=O)[C@H](Cc1ccccc1)NC(=O)[C@H](CC(N)=O)NC(=O)[C@@H]1CCCN1C(=O)[C@H](CO)NC(=O)[C@H](CO)NC(=O)[C@H](Cc1c[nH]cn1)NC(=O)[C@H](CCCNC(=N)N)NC(=O)[C@H](CC(C)C)NC(=O)[C@H](Cc1ccccc1)NC(=O)[C@@H](CC(=O)O)NC(=O)[C@H](C)NC(=O)[C@H](CC(C)C)NC(=O)[C@H](CCCNC(=N)N)NC(=O)[C@H](CCC(N)=O)NC(=O)[C@@H](NC(=O)[C@H](C)NC(=O)[C@@H]1CSSC[C@H](NC(=O)[C@@H](N)CCCCNC(=O)CC[C@H](NC(=O)CC[C@H](NC(=O)CCCCCCCCCCCCCCCCCCC(=O)O)C(=O)O)C(=O)O)C(=O)N[C@@H](CC(N)=O)C(=O)N[C@@H]([C@@H](C)O)C(=O)N[C@@H](C)C(=O)N[C@@H]([C@@H](C)O)C(=O)N1)[C@@H](C)O)C(=O)N1CCC[C@H]1C(=O)N[C@@H](CO)C(=O)N[C@@H](CO)C(=O)N[C@H](C(=O)N[C@@H](CC(N)=O)C(=O)N[C@H](C(=O)NCC(=O)N[C@@H](CO)C(=O)N[C@@H](CCCNC(=N)N)C(=O)N[C@H](C(=O)N[C@@H](Cc1ccc(O)cc1)C(N)=O)[C@@H](C)O)C(C)C)[C@@H](C)O
B5: N^ε1-[(4S)-4-carboxy-4-(19-carboxynonadecanoylamino)butanoyl]-[His14,Arg17,Pro21,Pro27,Pro34,Pro37]-h-amylin (peptide)
peptide: K([γGlu-C20 diacid])CNTATCATQRLAHFLRHSSPNFGAIPSSTNVGPNTP-NH2
modifications: disulfide 2-7; N-terminus assumed
SMILES: CC[C@H](C)[C@H](NC(=O)[C@H](C)NC(=O)CNC(=O)[C@H](Cc1ccccc1)NC(=O)[C@H](CC(N)=O)NC(=O)[C@@H]1CCCN1C(=O)[C@H](CO)NC(=O)[C@H](CO)NC(=O)[C@H](Cc1c[nH]cn1)NC(=O)[C@H](CCCNC(=N)N)NC(=O)[C@H](CC(C)C)NC(=O)[C@H](Cc1ccccc1)NC(=O)[C@H](Cc1c[nH]cn1)NC(=O)[C@H](C)NC(=O)[C@H](CC(C)C)NC(=O)[C@H](CCCNC(=N)N)NC(=O)[C@H](CCC(N)=O)NC(=O)[C@@H](NC(=O)[C@H](C)NC(=O)[C@@H]1CSSC[C@H](NC(=O)[C@@H](N)CCCCNC(=O)CC[C@H](NC(=O)CCCCCCCCCCCCCCCCCCC(=O)O)C(=O)O)C(=O)N[C@@H](CC(N)=O)C(=O)N[C@@H]([C@@H](C)O)C(=O)N[C@@H](C)C(=O)N[C@@H]([C@@H](C)O)C(=O)N1)[C@@H](C)O)C(=O)N1CCC[C@H]1C(=O)N[C@@H](CO)C(=O)N[C@@H](CO)C(=O)N[C@H](C(=O)N[C@@H](CC(N)=O)C(=O)N[C@H](C(=O)NCC(=O)N1CCC[C@H]1C(=O)N[C@@H](CC(N)=O)C(=O)N[C@H](C(=O)N1CCC[C@H]1C(N)=O)[C@@H](C)O)C(C)C)[C@@H](C)O
B6: N^ε1-[(4S)-4-carboxy-4-(19-carboxynonadecanoylamino)butanoyl]-[Glu14,Arg17,Pro21,Pro27,Pro34,Pro37]-h-amylin (peptide)
peptide: K([γGlu-C20 diacid])CNTATCATQRLAEFLRHSSPNFGAIPSSTNVGPNTP-NH2
modifications: disulfide 2-7; N-terminus assumed
SMILES: CC[C@H](C)[C@H](NC(=O)[C@H](C)NC(=O)CNC(=O)[C@H](Cc1ccccc1)NC(=O)[C@H](CC(N)=O)NC(=O)[C@@H]1CCCN1C(=O)[C@H](CO)NC(=O)[C@H](CO)NC(=O)[C@H](Cc1c[nH]cn1)NC(=O)[C@H](CCCNC(=N)N)NC(=O)[C@H](CC(C)C)NC(=O)[C@H](Cc1ccccc1)NC(=O)[C@H](CCC(=O)O)NC(=O)[C@H](C)NC(=O)[C@H](CC(C)C)NC(=O)[C@H](CCCNC(=N)N)NC(=O)[C@H](CCC(N)=O)NC(=O)[C@@H](NC(=O)[C@H](C)NC(=O)[C@@H]1CSSC[C@H](NC(=O)[C@@H](N)CCCCNC(=O)CC[C@H](NC(=O)CCCCCCCCCCCCCCCCCCC(=O)O)C(=O)O)C(=O)N[C@@H](CC(N)=O)C(=O)N[C@@H]([C@@H](C)O)C(=O)N[C@@H](C)C(=O)N[C@@H]([C@@H](C)O)C(=O)N1)[C@@H](C)O)C(=O)N1CCC[C@H]1C(=O)N[C@@H](CO)C(=O)N[C@@H](CO)C(=O)N[C@H](C(=O)N[C@@H](CC(N)=O)C(=O)N[C@H](C(=O)NCC(=O)N1CCC[C@H]1C(=O)N[C@@H](CC(N)=O)C(=O)N[C@H](C(=O)N1CCC[C@H]1C(N)=O)[C@@H](C)O)C(C)C)[C@@H](C)O

These binders were tested against T1, human calcitonin receptor (assay: cell-based or functional assay).

Binder	hCTR funct. EC50 (CRE luciferase reporter, BHK cells) [nM]
B1	0.185

These binders were tested against T2, human amylin receptor (amylin 3(a) …) (assay: SPA displacement of 125I-rat amylin, hAmylin 3(a) receptor membranes).
Outline: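 SPA beads + BHK amylin 3(a)/CRE-luc membranes, 35 ng/μL final; buffer 50 mM Hepes pH 7.4, 1 mM CaCl2, 5 mM MgCl₂, 0.1% OA, 0.02% Tween20. 120 min, 25° C, shaken; scintillation count. IC₅₀ by one-site binding competition fit, taken as receptor affinity.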

Binder	IC50 [nM]
B2	0.148
K([γGlu-γGlu-C20 diacid])CNTATCATQRLADFLRHSSPNFGAIPSSTNVGPRTY-NH2 (disulfide 2-7, also called compound 130)	0.453
B3	0.281
B4	0.365
B5	0.131
B6	0.214
